# Experimental data published in article PMC10193809, “A small protein coded within the mitochondrial canonical gene nd4 regulates mitochondrial bioenergetics” (BMC Biology, 2023).
# B1: MTALTND4 (mitochondrial alternative ND4 protein), complete synthetic peptide (peptide)
# chain: MRHNYNKLHLPTTNRPKIAHCMLFNQPHSPRSNSHSHPNPLKLHRRSHSHNRPRAYILITILPSKLKLRTHSQSHHNPLSRTSNSTPTNSFLMTSSKPR
# notes: M.W. 11,532.06 g/mol as printed in the methods; also called MTALND4; synthetic MTALTND4; source: synthetic peptide (LifeTein; purity verified by HPLC by the supplier)
# Biological target: the molecule itself
# Experiment: cross-linking; 3 µg synthetic MTALTND4 in 20 µl PBS 1x with 0%, 0.5% or 1% paraformaldehyde, 30 °C, 10 min; tricine-SDS-PAGE, Coomassie stain
protein,measurement,value
B1,stoichiometry N,2
